IntAct's records for PubMed 32296183

B1: Golgi SNAP receptor complex member 2 (Homo sapiens), O14653 (parent)
chain: MDPLFQQTHKQVHEIQSCMGRLETADKQSVHIVENEIQASIDQIFSRLERLEILSSKEPPNKRQNARLRVDQLKYDVQHLQTALRNFQHRRHAREQQERQREELLSRTFTTNDSDTTIPMDESLQFNSSLQKVHNGMDDLILDGHNILDGLRTQRLTLKGTQKKILDIANMLGLSNTVMRLIEKRAFQDKYFMIGGMLLTCVVMFLVVQYLT
partner: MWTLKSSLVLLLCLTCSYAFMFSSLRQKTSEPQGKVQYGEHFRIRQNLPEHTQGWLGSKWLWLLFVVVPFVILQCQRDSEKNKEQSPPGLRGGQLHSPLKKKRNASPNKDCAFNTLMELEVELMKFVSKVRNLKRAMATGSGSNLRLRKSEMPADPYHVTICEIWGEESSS
B2: Golgi SNAP receptor complex member 2 (Homo sapiens), O14653 (parent)
chain: B1 chain
partner: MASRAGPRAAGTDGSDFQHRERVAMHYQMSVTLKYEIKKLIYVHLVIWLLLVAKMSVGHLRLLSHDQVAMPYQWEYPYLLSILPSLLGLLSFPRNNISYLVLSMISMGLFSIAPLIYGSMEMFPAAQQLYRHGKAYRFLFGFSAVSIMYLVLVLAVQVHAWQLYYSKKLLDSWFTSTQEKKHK
B3: Golgi SNAP receptor complex member 2 (Homo sapiens), O14653 (parent)
chain: B1 chain
partner: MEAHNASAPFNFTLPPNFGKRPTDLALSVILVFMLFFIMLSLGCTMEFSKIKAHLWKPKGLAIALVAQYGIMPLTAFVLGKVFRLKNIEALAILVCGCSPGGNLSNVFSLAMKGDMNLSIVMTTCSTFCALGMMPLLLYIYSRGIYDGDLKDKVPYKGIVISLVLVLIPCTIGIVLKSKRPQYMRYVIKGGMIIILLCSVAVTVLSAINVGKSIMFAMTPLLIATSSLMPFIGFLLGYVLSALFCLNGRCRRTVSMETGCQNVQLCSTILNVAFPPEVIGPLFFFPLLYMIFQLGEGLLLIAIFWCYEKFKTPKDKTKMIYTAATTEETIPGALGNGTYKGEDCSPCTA
B4: Ceroid-lipofuscinosis neuronal protein 6 (Homo sapiens), Q9NWW5 (parent)
chain: MEATRRRQHLGATGGPGAQLGASFLQARHGSVSADEAARTAPFHLDLWFYFTLQNWVLDFGRPIAMLVFPLEWFPLNKPSVGDYFHMAYNVITPFLLLKLIERSPRTLPRSITYVSIIIFIMGASIHLVGDSVNHRLLFSGYQHHLSVRENPIIKNLKPETLIDSFELLYYYDEYLGHCMWYIPFFLILFMYFSGCFTASKAESLIPGPALLLVAPSGLYYWYLVTEGQIFILFIFTFFAMLALVLHQKRKRLFLDSNGLFLFSSFALTLLLVALWVAWLWNDPVLRKKYPGVIYVPEPWAFYTLHVSSRH
partner: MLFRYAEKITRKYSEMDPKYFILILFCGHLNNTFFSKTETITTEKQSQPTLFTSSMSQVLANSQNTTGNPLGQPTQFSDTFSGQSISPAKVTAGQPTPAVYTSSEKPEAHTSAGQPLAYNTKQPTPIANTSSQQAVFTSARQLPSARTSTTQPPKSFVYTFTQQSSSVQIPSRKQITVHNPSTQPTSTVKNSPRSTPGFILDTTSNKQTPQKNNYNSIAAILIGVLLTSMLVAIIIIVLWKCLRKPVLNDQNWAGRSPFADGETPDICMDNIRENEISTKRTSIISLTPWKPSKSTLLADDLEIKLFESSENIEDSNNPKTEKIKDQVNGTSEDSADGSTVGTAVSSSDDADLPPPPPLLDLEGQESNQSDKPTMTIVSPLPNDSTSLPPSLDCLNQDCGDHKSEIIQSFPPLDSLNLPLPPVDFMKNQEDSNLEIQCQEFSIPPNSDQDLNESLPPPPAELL
B5: Very-long-chain enoyl-CoA reductase (Homo sapiens), Q9NZ01 (parent)
chain: MKHYEVEILDAKTREKLCFLDKVEPHATIAEIKNLFTKTHPQWYPARQSLRLDPKGKSLKDEDVLQKLPVGTTATLYFRDLGAQISWVTVFLTEYAGPLFIYLLFYFRVPFIYGHKYDFTSSRHTVVHLACICHSFHYIKRLLETLFVHRFSHGTMPLRNIFKNCTYYWGFAAWMAYYINHPLYTPPTYGAQQVKLALAIFVICQLGNFSIHMALRDLRPAGSKTRKIPYPTKNPFTWLFLLVSCPNYTYEVGSWIGFAIMTQCLPVALFSLVGFTQMTIWAKGKHRSYLKEFRDYPPLRMPIIPFLL
partner: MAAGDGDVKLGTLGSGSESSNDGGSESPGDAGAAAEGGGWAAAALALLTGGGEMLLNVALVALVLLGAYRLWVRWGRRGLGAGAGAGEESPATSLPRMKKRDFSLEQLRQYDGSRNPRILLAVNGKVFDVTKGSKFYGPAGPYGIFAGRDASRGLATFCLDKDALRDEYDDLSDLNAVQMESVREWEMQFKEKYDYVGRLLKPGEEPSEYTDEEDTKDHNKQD
B6: Golgi SNAP receptor complex member 2 (Homo sapiens), O14653 (parent)
chain: B1 chain
partner: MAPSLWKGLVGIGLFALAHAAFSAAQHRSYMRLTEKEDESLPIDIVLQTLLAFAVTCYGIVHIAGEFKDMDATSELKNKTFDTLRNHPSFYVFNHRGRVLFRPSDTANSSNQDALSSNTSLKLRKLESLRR
B7: Golgi SNAP receptor complex member 2 (Homo sapiens), O14653 (parent)
chain: B1 chain
partner: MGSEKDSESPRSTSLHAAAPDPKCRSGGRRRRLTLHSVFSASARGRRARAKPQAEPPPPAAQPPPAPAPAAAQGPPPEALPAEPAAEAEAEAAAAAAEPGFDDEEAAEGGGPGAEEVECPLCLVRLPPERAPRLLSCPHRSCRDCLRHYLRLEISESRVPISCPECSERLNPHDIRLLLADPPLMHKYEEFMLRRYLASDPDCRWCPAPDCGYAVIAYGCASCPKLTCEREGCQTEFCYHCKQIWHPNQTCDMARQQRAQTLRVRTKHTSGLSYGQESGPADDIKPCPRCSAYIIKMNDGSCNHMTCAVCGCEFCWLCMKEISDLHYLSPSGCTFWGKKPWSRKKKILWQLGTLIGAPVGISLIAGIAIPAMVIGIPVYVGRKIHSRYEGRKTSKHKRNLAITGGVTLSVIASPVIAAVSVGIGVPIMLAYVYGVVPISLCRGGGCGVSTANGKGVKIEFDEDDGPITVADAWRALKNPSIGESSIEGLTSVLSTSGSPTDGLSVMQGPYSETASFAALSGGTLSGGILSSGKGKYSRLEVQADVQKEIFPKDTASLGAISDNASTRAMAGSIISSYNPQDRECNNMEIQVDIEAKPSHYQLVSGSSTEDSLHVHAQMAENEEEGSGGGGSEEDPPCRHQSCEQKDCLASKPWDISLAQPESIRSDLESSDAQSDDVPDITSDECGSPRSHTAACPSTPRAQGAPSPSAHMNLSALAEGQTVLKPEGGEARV
B8: Very-long-chain enoyl-CoA reductase (Homo sapiens), Q9NZ01 (parent)
chain: B5 chain
partner: B1 partner

Variants of: B1
Settings: with FAM209A

| effect of a mutation on the interaction | Variant |
| --- | --- |
| with no effect | MDPLFQQTHKQVHEIQSCMGRLETADKQSVHIVENEIQASIDQIFSRLERLEILSSKEPPNKRQNARLRVDQLKYDVQHLQTALRNFQHRRHAREQQERQREELLSRTFTTNDSDTTIPMDESLQFNSSLQKVHNGMDDLILDWHNILDGLRTQRLTLKGTQKKILDIANMLGLSNTVMRLIEKRAFQDKYFMIGGMLLTCVVMFLVVQYLT [G144W] |

Variants of: B2
Settings: with jagn1_human JAGN1, Q8N5M9

| effect of a mutation on the interaction | Variant |
| --- | --- |
| with no effect | MDPLFQQTHKQVHEIQSCMGRLETADKQSVHIVENEIQASIDQIFSRLERLEILSSKEPPNKRQNARLRVDQLKYDVQHLQTALRNFQHRRHAREQQERQREELLSRTFTTNDSDTTIPMDESLQFNSSLQKVHNGMDDLILDWHNILDGLRTQRLTLKGTQKKILDIANMLGLSNTVMRLIEKRAFQDKYFMIGGMLLTCVVMFLVVQYLT [G144W] |

Variants of: B3
Settings: with ntcp_human SLC10A1, Q14973

| effect of a mutation on the interaction | Variant |
| --- | --- |
| with no effect | MDPLFQQTHKQVHEIQSCMGRLETADKQSVHIVENEIQASIDQIFSRLERLEILSSKEPPNKRQNARLRVDQLKYDVQHLQTALRNFQHRRHAREQQERQREELLSRTFTTNDSDTTIPMDESLQFNSSLQKVHNGMDDLILDWHNILDGLRTQRLTLKGTQKKILDIANMLGLSNTVMRLIEKRAFQDKYFMIGGMLLTCVVMFLVVQYLT [G144W] |

Variants of: B4
Settings: with EVI2B

| effect of a mutation on the interaction | Variant |
| --- | --- |
| with no effect | MEATRRRQHLGATGGPGAQLGASFLQARHGSVSADEAARTAPFHLDFWFYFTLQNWVLDFGRPIAMLVFPLEWFPLNKPSVGDYFHMAYNVITPFLLLKLIERSPRTLPRSITYVSIIIFIMGASIHLVGDSVNHRLLFSGYQHHLSVRENPIIKNLKPETLIDSFELLYYYDEYLGHCMWYIPFFLILFMYFSGCFTASKAESLIPGPALLLVAPSGLYYWYLVTEGQIFILFIFTFFAMLALVLHQKRKRLFLDSNGLFLFSSFALTLLLVALWVAWLWNDPVLRKKYPGVIYVPEPWAFYTLHVSSRH [L47F] |
| with no effect | MEATRTRQHLGATGGPGAQLGASFLQARHGSVSADEAARTAPFHLDLWFYFTLQNWVLDFGRPIAMLVFPLEWFPLNKPSVGDYFHMAYNVITPFLLLKLIERSPRTLPRSITYVSIIIFIMGASIHLVGDSVNHRLLFSGYQHHLSVRENPIIKNLKPETLIDSFELLYYYDEYLGHCMWYIPFFLILFMYFSGCFTASKAESLIPGPALLLVAPSGLYYWYLVTEGQIFILFIFTFFAMLALVLHQKRKRLFLDSNGLFLFSSFALTLLLVALWVAWLWNDPVLRKKYPGVIYVPEPWAFYTLHVSSRH [R6T] |
| with no effect | MEATRRRQHLGATGGPGAQLGASFLQARHGSVSADEAARTAPFHLDLWFYFTLQNWVLDFGRPIAMLVFPLEWFPLNKPSVGDYFHMAYNVITPFLLLKLIERSPRTLPRSITYVSIIIFIMDASIHLVGDSVNHRLLFSGYQHHLSVRENPIIKNLKPETLIDSFELLYYYDEYLGHCMWYIPFFLILFMYFSGCFTASKAESLIPGPALLLVAPSGLYYWYLVTEGQIFILFIFTFFAMLALVLHQKRKRLFLDSNGLFLFSSFALTLLLVALWVAWLWNDPVLRKKYPGVIYVPEPWAFYTLHVSSRH [G123D] |

Variants of: B5
Settings: with pgrc2_human PGRMC2, O15173

| effect of a mutation on the interaction | Variant |
| --- | --- |
| with no effect | MKHYEVEILDAKTREKLCFLDKVEPHATIAEIKNLFTKTHPQWYPARQSLRLDPKGKSLKDEDVLQKLPVGTTATLYFRDLGAQISWVTVFLTEYAGPLFIYLLFYFRVPFIYGHKYDFTSSRHTVVHLACICHSFHYIKRLLETLFVHRFSHGTMPLRNIFKNCTYYWGFAAWMAYYINHLLYTPPTYGAQQVKLALAIFVICQLGNFSIHMALRDLRPAGSKTRKIPYPTKNPFTWLFLLVSCPNYTYEVGSWIGFAIMTQCLPVALFSLVGFTQMTIWAKGKHRSYLKEFRDYPPLRMPIIPFLL [P182L] |

Variants of: B6
Settings: with emc5_human MMGT1, Q8N4V1

| effect of a mutation on the interaction | Variant |
| --- | --- |
| with no effect | MDPLFQQTHKQVHEIQSCMGRLETADKQSVHIVENEIQASIDQIFSRLERLEILSSKEPPNKRQNARLRVDQLKYDVQHLQTALRNFQHRRHAREQQERQREELLSRTFTTNDSDTTIPMDESLQFNSSLQKVHNGMDDLILDWHNILDGLRTQRLTLKGTQKKILDIANMLGLSNTVMRLIEKRAFQDKYFMIGGMLLTCVVMFLVVQYLT [G144W] |

Variants of: B7
Settings: with rn19b_human RNF19B

| effect of a mutation on the interaction | Variant |
| --- | --- |
| with no effect | MDPLFQQTHKQVHEIQSCMGRLETADKQSVHIVENEIQASIDQIFSRLERLEILSSKEPPNKRQNARLRVDQLKYDVQHLQTALRNFQHRRHAREQQERQREELLSRTFTTNDSDTTIPMDESLQFNSSLQKVHNGMDDLILDWHNILDGLRTQRLTLKGTQKKILDIANMLGLSNTVMRLIEKRAFQDKYFMIGGMLLTCVVMFLVVQYLT [G144W] |

Variants of: B8
Settings: with FAM209A

| effect of a mutation on the interaction | Variant |
| --- | --- |
| disrupting interaction strength | MKHYEVEILDAKTREKLCFLDKVEPHATIAEIKNLFTKTHPQWYPARQSLRLDPKGKSLKDEDVLQKLPVGTTATLYFRDLGAQISWVTVFLTEYAGPLFIYLLFYFRVPFIYGHKYDFTSSRHTVVHLACICHSFHYIKRLLETLFVHRFSHGTMPLRNIFKNCTYYWGFAAWMAYYINHLLYTPPTYGAQQVKLALAIFVICQLGNFSIHMALRDLRPAGSKTRKIPYPTKNPFTWLFLLVSCPNYTYEVGSWIGFAIMTQCLPVALFSLVGFTQMTIWAKGKHRSYLKEFRDYPPLRMPIIPFLL [P182L] |
